Test results from article PMC9138545 (2022).
Square brackets hold non-standard residues; d marks the D form. Ends that are not written are not given here. pY = N[C@@H](Cc1ccc(OP(=O)(O)O)cc1)C(=O)O

B1: fluorescently labelled phospho-para-tyrosine IRS-1 peptide GRKGSGD(pY)MPMSPKS(K-FITC) (peptide)
peptide: GRKGSGDYMPMSPKSK
modifications: not fully specified; phosphotyrosine at position 8 of the peptide (tyrosine residue 632 of human IRS1); lys-carboxyfluorescein (K-FITC) at the C-terminal end
B2: phospho-para-Tyr IRS-1 peptide GRKGSGD(pY)MPMSPKV (peptide)
peptide: GRKGSGD[pY]MPMSPKV-NH2

Experiments:
[1] = biological target: C-terminal SH2 domain of PI3K regulatory subunit 1 (UniProt P27986 614-724); experiment: FP
[2] = biological target: N-terminal SH2 domain of PI3K regulatory subunit 1 (UniProt P27986 321-433); experiment: FP
N-terminal SH2 domain of PI3K regulatory subunit 1, sequence (P27986 321-433): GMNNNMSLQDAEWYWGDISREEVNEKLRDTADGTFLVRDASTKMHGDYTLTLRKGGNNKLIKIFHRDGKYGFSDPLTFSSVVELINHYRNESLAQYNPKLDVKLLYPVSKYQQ

C-terminal SH2 domain of PI3K regulatory subunit 1, sequence (P27986 614-724): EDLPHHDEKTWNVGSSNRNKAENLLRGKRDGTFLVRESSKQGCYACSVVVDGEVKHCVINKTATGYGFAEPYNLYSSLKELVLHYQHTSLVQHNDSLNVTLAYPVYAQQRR

| Kd [1] [nM] | Kd [2] [nM] | Binder |
| --- | --- | --- |
| 18.6 | 408 | B1 |
| 2.1 | 137 | B2 |
